Measurements reported in patent publication US20140335077A1, “Compositions and Methods for the Treatment of Cancer Using IGF-IR Antagonists and MAPK/ERK Inhibitors” (priority 2013, published 2014).

Key:
IGF-1R = target: T1, IGF-1R (Homo sapiens, UniProt P08069); experiment: IGF-1R ubiquitination in ES cells (immunoprecipitation, WB); type: cell-based; conditions: 10 min stimulation, serum starved ES cells; all investigated cell lines
T1 construct: all the ES cell lines tested expressed IGF-1R; endogenous in cells; host or cells: Ewing's sarcoma cell lines SKES, RDES, CADO, A673, SKNMC
Description: (§1) FIG. 2A-FIG. 2D. Mechanism of CP induced IGF-1R downregulation: β-arrestin1 recruitment and receptor ubiquitination. (A) Cells incubated in serum free medium for 12 h were treated with 0, 0.1 or 1 μg/ml CP for 24 h. Protein lysates were analyzed by WB for IGF-1R and GAPDH as a loading control. […] Protein lysates were analyzed by WB for IGF-1R and GAPDH as a loading control. Signals were quantified by densitometry, normalized to GAPDH and expressed as a percentage of the IGF-1R at 0 h. Data correspond to the mean±SEM from three independent experiments. […] IGF-1R was immunoprecipitated from lysates and analyzed by WB (IB) for ubiquitination (Ub) and IGF-1R as a loading control. Molecular weight markers in KDa are indicated to the left of the panels. (D) β-Arrestin1 (β-arr1) was immunoprecipitated from cell lysates prepared as for (C). Immunoprecipitated proteins were analyzed by WB for IGF-1R. The whole lysates were analyzed by WB for GAPDH as a loading control.
(§2) Cells were lysed with 500 μl lysis buffer (110 mM KOAc, 0.5% (v/v) Triton X-100, 100 mM NaCl, protease inhibitor cocktail tablet (Roche), buffering salts pH 7.4). 500 μg of protein was incubated with Dynabeads protein G (10 μl) (Invitrogen, CA, USA) and 1 μg antibody overnight at 4° C. on a rotator platform. […]
(§3) These trends were confirmed by densitometric quantification of multiple experiments (FIG. 2B, graphs). […]

[1] = target: T2, IGF-1R/β-arr1 association (Homo sapiens, UniProt P08069); experiment: β-arrestin1 recruitment to IGF-1R in ES cell lines (immunoprecipitation, WB); type: cell-based; conditions: 10 min stimulation; all ES cell lines
T2 construct: endogenous in cells; host or cells: Ewing's sarcoma cell lines
Description: as §1, §2, §3

B1: CP-751,871: anti-IGF-1R antibody figitumumab (Pfizer), IGF-1R antagonist (antibody, chains of the INN, looked up)
heavy: EVQLLESGGGLVQPGGSLRLSCTASGFTFSSYAMNWVRQAPGKGLEWVSAISGSGGTTFYADSVKGRFTISRDNSRTTLYLQMNSLRAEDTAVYYCAKDLGWSDSYYYYYGMDVWGQGTTVTVSSASTKGPSVFPLAPCSRSTSESTAALGCLVKDYFPEPVTVSWNSGALTSGVHTFPAVLQSSGLYSLSSVVTVPSSNFGTQTYTCNVDHKPSNTKVDKTVERKCCVECPPCPAPPVAGPSVFLFPPKPKDTLMISRTPEVTCVVVDVSHEDPEVQFNWYVDGVEVHNAKTKPREEQFNSTFRVVSVLTVVHQDWLNGKEYKCKVSNKGLPAPIEKTISKTKGQPREPQVYTLPPSREEMTKNQVSLTCLVKGFYPSDIAVEWESNGQPENNYKTTPPMLDSDGSFFLYSKLTVDKSRWQQGNVFSCSVMHEALHNHYTQKSLSLSPG
light: DIQMTQFPSSLSASVGDRVTITCRASQGIRNDLGWYQQKPGKAPKRLIYAASRLHRGVPSRFSGSGSGTEFTLTISSLQPEDFATYYCLQHNSYPCSFGQGTKLEIKRTVAAPSVFIFPPSDEQLKSGTASVVCLLNNFYPREAKVQWKVDNALQSGNSQESVTEQDSKDSTYSLSSTLTLSKADYEKHKVYACEVTHQGLSSPVTKSFNRGEC
IGF-1R ubiquitination compared with IGF-1 (IGF-1R): more potent in generating receptor ubiquitination
β-arr1 recruitment to the receptor compared with IGF-1 [1]: much more potent than IGF-1 in recruiting β-arr1
